{"source": "paper PMC4234702", "about": "(Cellular and molecular life sciences : CMLS, 2014)", "target": "the molecule itself", "test": "crystal structure"}
{"protein": "cell-free expressed Δ7 DgkA (thermostabilized mutant of diacylglycerol kinase) (enzyme, Escherichia coli) ANNTTGFTRIIKAAGYSWKGLRAAWINEAAFRQEGVAVLLCVVIAAWLDVDAVTRVLLISSVMLVMIVELLNSAIEAVVDRIGSEYHELSGRAKDLGSAAVLIAIIDAVITWAILLWSHFG", "values": [{"measurement": "stoichiometry N", "result": 3}]}
